Assay results from publication PMC11257983 (2024).

B1: Myc-MEK [Drosophila] / Flag-CNK^2–549 [Drosophila] (parent)
chain 1: MSKNKLNLVLPPVNTEATVAAATVAPTPPFKTPSGTDTHSLLGKPKTSIDALTETLEGLDMGDTERKRIKMFLSQKEKIGELSDEDLEKLGELGSGNGGVVMKVRHTHTHLIMARKLIHLEVKPAIKKQILRELKVLHECNFPHIVGFYGAFYSDGEISICMEYMDGGSLDLILKRAGRIPESILGRITLAVLKGLSYLRDNHAIIHRDVKPSNILVNSSGEIKICDFGVSGQLIDSMANSFVGTRSYMSPERLQGTHYSVQSDIWSLGLSLVEMAIGMYPIPPPNTATLESIFADNAEESGQPTDEPRAMAIFELLDYIVNEPPPKLEHKIFSTEFKDFVDICLKKQPDERADLKTLLSHPWIRKAELEEVDISGWVCKTMDLPPSTPKRNTSPN
chain 2: AYINIAEWTPDQVTDWIKGLDESMKGYLYEFSKQEIGGRALLNIRPYELENLGMLRIGHQEIVLEAVENLRNFHYHLKNDNLQFMALHVATAAKNLHRELARNHAESTKIDTRILHDITRTIATLKPLVGSLERTPFRKQEMYREYCGNVLKCGLELATIAHRDRFALQPVPAIRQSAERLENLANFVIQDISDPMVLQPASLNLVTLKKRESELGFNIESSYNGIHRVTDIKYNSPAHNSGKIEDGDEIVQINYQTVVGWQHRTVLEHLREALPDVVLTVKKRPKHTKMFGQIYMQPYRLPSKKRNMAARWAAQMPSPRAAFLTLDTEQLATGGTGSAVPDPSKSLSSEKREVLTKANPVSSASDSDSSCSDIPTPTDPKLAAREIRLYYPKPRALLQRRNTICGCEYLSLKNSDLVVPSWHERKPGIGSPTNCDPGSPSIRDKSISFGYGLEMAARPTTCIGIAGDTSTDKARRMFHEARKLKQLTEDSQREFLVDRYKPGVSKVVRFDAKEDYVMKNEKFICNVENTILETFEPIPFADEGDEDA

Variants of: B1
Test: GST pull-down, immunoblot quantification
Settings: with Flag-CNK^2–549 [Drosophila]; S2 cells; Flag-CNK2–549, V5-KSR, Myc-MEK, GST-HYP co-expressed; captured via GST-HYP; anti-Myc (MEK) blot; parent: 1

**Q.** Which ratio to parent does the source give for chain 1 MSKNKLNLVLPPVNTEATVAAATVAPTPPFKTPSGTDTHSLLGKPKTSIDALTETLEGLDMGDTERKRIKMFLSQKEKIGELSDEDLEKLGELGSGNGGVVMKVRHTHTHLIMARKLIHLEVKPAIKKQILRELKVLHECNFPHIVGFYGAFYSDGEISICMEYMDGGSLDLILKRAGRIPESILGRITLAVLKGLSYLRDNHAIIHRDVKPSNILVNSSGEIKICDFGVSGQLIDSMANSFVGTRSYMSPERLQGTHYSVQSDIWSLGLSLVEMAIGMYPIPPPNTATLESIFADNAEESGQPTDEPRAMAIFELLDYIVNRPPPKLEHKIFSTEFKDFVDICLKKQPDERADLKTLLSHPWIRKAELEEVDISGWVCKTMDLPPSTPKRNTSPN [chain 1 E323R] here?
**A.** 0.56

Same assay, conditions: with Flag-CNK^2–549 [Drosophila]; S2 cells; Flag-CNK2–549, V5-KSR, Myc-MEK, GST-HYP co-expressed; captured via GST-HYP; anti-V5 (KSR) blot; parent: 1

**Q.** For chain 1 MSKNKLNLVLPPVNTEATVAAATVAPTPPFKTPSGTDTHSLLGKPKTSIDALTETLEGLDMGDTERKRIKMFLSQKEKIGELSDEDLEKLGELGSGNGGVVMKVRHTHTHLIMARKLIHLEVKPAIKKQILRELKVLHECNFPHIVGFYGAFYSDGEISICMEYMDGGSLDLILKRAGRIPESILGRITLAVLKGLSYLRDNHAIIHRDVKPSNILVNSSGEIKICDFGVSGQLIDSMANSFVGTRSYMSPERLQGTHYSVQSDIWSLGLSLVEMAIGMYPIPPPNTATLESIFADNAEESGQPTDEPRAMAIFELLDYIVNRPPPKLEHKIFSTEFKDFVDICLKKQPDERADLKTLLSHPWIRKAELEEVDISGWVCKTMDLPPSTPKRNTSPN [chain 1 E323R], which ratio to parent is on record?
**A.** 0.66

Same assay, conditions: with Myc-MEK [Drosophila], S2 cells, Flag-CNK2–549, V5-KSR, GST-HYP co-expressed, captured via GST-HYP, anti-Myc (MEK) blot, parent: 1

**Q.** For chain 2 AYINIAEWTPDQVTDWIKGLDESMKGYLYEFSKQEIGGRALLNIRPYELENLGMLRIGHQEIVLEAVENLRNFHYHLKNDNLQFMALHVATAAKELHRELARNHAESTKIDTRILHDITRTIATLKPLVGSLERTPFRKQEMYREYCGNVLKCGLELATIAHRDRFALQPVPAIRQSAERLENLANFVIQDISDPMVLQPASLNLVTLKKRESELGFNIESSYNGIHRVTDIKYNSPAHNSGKIEDGDEIVQINYQTVVGWQHRTVLEHLREALPDVVLTVKKRPKHTKMFGQIYMQPYRLPSKKRNMAARWAAQMPSPRAAFLTLDTEQLATGGTGSAVPDPSKSLSSEKREVLTKANPVSSASDSDSSCSDIPTPTDPKLAAREIRLYYPKPRALLQRRNTICGCEYLSLKNSDLVVPSWHERKPGIGSPTNCDPGSPSIRDKSISFGYGLEMAARPTTCIGIAGDTSTDKARRMFHEARKLKQLTEDSQREFLVDRYKPGVSKVVRFDAKEDYVMKNEKFICNVENTILETFEPIPFADEGDEDA [chain 2 N95E], which ratio to parent is on record?
**A.** 0.94

**Q.** Which ratio to parent does the source give for chain 2 AYINIAEWTPDQVTDWIKGLDESMKGYLYEFSKQEIGGRALLNIRPYELENLGMLRIGHQEIVLEAVENLRNFHYHLKNDWLQFMALHVATAAKNLHRELARNHAESTKIDTRILHDITRTIATLKPLVGSLERTPFRKQEMYREYCGNVLKCGLELATIAHRDRFALQPVPAIRQSAERLENLANFVIQDISDPMVLQPASLNLVTLKKRESELGFNIESSYNGIHRVTDIKYNSPAHNSGKIEDGDEIVQINYQTVVGWQHRTVLEHLREALPDVVLTVKKRPKHTKMFGQIYMQPYRLPSKKRNMAARWAAQMPSPRAAFLTLDTEQLATGGTGSAVPDPSKSLSSEKREVLTKANPVSSASDSDSSCSDIPTPTDPKLAAREIRLYYPKPRALLQRRNTICGCEYLSLKNSDLVVPSWHERKPGIGSPTNCDPGSPSIRDKSISFGYGLEMAARPTTCIGIAGDTSTDKARRMFHEARKLKQLTEDSQREFLVDRYKPGVSKVVRFDAKEDYVMKNEKFICNVENTILETFEPIPFADEGDEDA [chain 2 N81W] here?
**A.** 0.05

**Q.** With chain 2 AYINIAEWTPDQVTDWIKGLDESMKGYLYEFSKQEIGGRALLNIRPYELENLGMLRIGHQEIVLEAVENLRNFHYHLKNDELQFMALHVATAAKNLHRELARNHAESTKIDTRILHDITRTIATLKPLVGSLERTPFRKQEMYREYCGNVLKCGLELATIAHRDRFALQPVPAIRQSAERLENLANFVIQDISDPMVLQPASLNLVTLKKRESELGFNIESSYNGIHRVTDIKYNSPAHNSGKIEDGDEIVQINYQTVVGWQHRTVLEHLREALPDVVLTVKKRPKHTKMFGQIYMQPYRLPSKKRNMAARWAAQMPSPRAAFLTLDTEQLATGGTGSAVPDPSKSLSSEKREVLTKANPVSSASDSDSSCSDIPTPTDPKLAAREIRLYYPKPRALLQRRNTICGCEYLSLKNSDLVVPSWHERKPGIGSPTNCDPGSPSIRDKSISFGYGLEMAARPTTCIGIAGDTSTDKARRMFHEARKLKQLTEDSQREFLVDRYKPGVSKVVRFDAKEDYVMKNEKFICNVENTILETFEPIPFADEGDEDA [chain 2 N81E] as the variant, how does the ratio to parent read?
**A.** 0.27

**Q.** For chain 2 AYINIAEWTPDQVTDWIKGLDESMKGYLYEFSKQEIGGRALLNIRPYELENLGMLRIGHQEIVLEAVENLRNFHYHLKNDNLEFMALHVATAAKNLHRELARNHAESTKIDTRILHDITRTIATLKPLVGSLERTPFRKQEMYREYCGNVLKCGLELATIAHRDRFALQPVPAIRQSAERLENLANFVIQDISDPMVLQPASLNLVTLKKRESELGFNIESSYNGIHRVTDIKYNSPAHNSGKIEDGDEIVQINYQTVVGWQHRTVLEHLREALPDVVLTVKKRPKHTKMFGQIYMQPYRLPSKKRNMAARWAAQMPSPRAAFLTLDTEQLATGGTGSAVPDPSKSLSSEKREVLTKANPVSSASDSDSSCSDIPTPTDPKLAAREIRLYYPKPRALLQRRNTICGCEYLSLKNSDLVVPSWHERKPGIGSPTNCDPGSPSIRDKSISFGYGLEMAARPTTCIGIAGDTSTDKARRMFHEARKLKQLTEDSQREFLVDRYKPGVSKVVRFDAKEDYVMKNEKFICNVENTILETFEPIPFADEGDEDA [chain 2 Q83E], which ratio to parent is on record?
**A.** 0.04
